From paper PMC3246216 (2012) come the findings set out here.

Common to all, as to experiment: ITC
On the technique in general: ITC needs no label: the signal is the heat of the interaction.

The target in assay [1] is T1, Gcn4 101-134 (Saccharomyces cerevisiae, UniProt P03069).
T1 chain: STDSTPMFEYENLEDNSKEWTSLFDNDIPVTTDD

Assay [2] deals with T2, Gcn4 101-134 (Saccharomyces cerevisiae, UniProt P03069).
T2 chain: T1 chain with F24A

In assay [3] the target is T3, Gcn4 101-134 (Saccharomyces cerevisiae, UniProt P03069).
T3 chain: T1 chain with W20A

Residue numbers refer to the chain shown, from its start.

B1: Gal11/Med15 158-238 (protein)
chain: QRRQLTPQQQQLVNQMKVAPIPKQLLQRIPNIPPNINTWQQVTALAQQKLLTPQDMEAAKEVYKIHQQLLFKARLQQQQAQ
For orientation: Kd means the equilibrium constant for the complex coming apart. Take B1: the values for the dissociation constant (Kd) with Gcn4 101-134 [1], in the assay with Gcn4 101-134 [2] and with Gcn4 101-134 [3] were 10.1 µM, 65 µM and 56 µM, respectively.

B2: Gal11/Med15 158-238 (protein)
chain: B1 chain with M56A
B2 displayed a Kd in the assay with Gcn4 101-134 [1] of 76 µM.
